Consider 22 molecules from article PMC12416549 (2024).

Positions count from the first letter of the chain named. In names and notes the source's numbering stands.

The assay deals with T1, TNFR1 (Homo sapiens, UniProt P19438).
T1 chain: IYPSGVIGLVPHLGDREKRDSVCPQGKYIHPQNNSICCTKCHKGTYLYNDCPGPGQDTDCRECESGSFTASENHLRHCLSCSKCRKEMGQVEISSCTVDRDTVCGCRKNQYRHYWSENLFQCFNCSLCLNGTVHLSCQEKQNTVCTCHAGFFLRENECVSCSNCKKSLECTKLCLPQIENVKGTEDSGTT
Put plainly: yeast display SC50.

B1: A10C (designed binder)
chain: SMEEEVEKACKEYEKKKKEAIEKHLEKLKAKDKEAAERFLKELEEAAKEYAKDEAKTMSEEEAKRRAKKYKEKVLLSELSEEEQKEIKEAEEKLVRTILKYVEEAAK
As to B1, the “apparent Kd (screen)” value was 1.05 nM.

B2: I21S (designed binder)
chain: B1 chain with C10A, I21S
Take B2: the “apparent Kd (screen)” value came out at 0.446 nM.

B3: V6T (designed binder)
chain: B1 chain with V6T, C10A
As to B3, the “apparent Kd (screen)” value amounted to 0.49 nM.

B4: V6H (designed binder)
chain: B1 chain with V6H, C10A
Take B4: the “apparent Kd (screen)” value came out at 0.446 nM.

B5: E82Q (designed binder)
chain: B1 chain with C10A, E82Q
Turning to B5, the “apparent Kd (screen)” value was 0.49 nM.

B6: A9K (designed binder)
chain: B1 chain with A9K, C10A
Take B6: the “apparent Kd (screen)” value was 0.446 nM.

B7: K18E (designed binder)
chain: B1 chain with C10A, K18E
For B7, the “apparent Kd (screen)” value was 1.86 nM.

B8: E103C (designed binder)
chain: B1 chain with C10A, E103C
With B8, the “apparent Kd (screen)” value was determined as 7.78 nM.

B9: K11P (designed binder)
chain: B1 chain with C10A, K11P
For the molecule B9, the “apparent Kd (screen)” value stood at 18.3 nM.

B10: K88S (designed binder)
chain: B1 chain with C10A, K88S
For the molecule B10, the “apparent Kd (screen)” value was determined as 0.49 nM.

B11: Y50R (designed binder)
chain: B1 chain with C10A, Y50R
With B11, the “apparent Kd (screen)” value came to 2.25 nM.

B12: Y70F (designed binder)
chain: B1 chain with C10A, Y70F
As to B12, the “apparent Kd (screen)” value stood at 12.5 nM.

B13: K8M (designed binder)
chain: B1 chain with K8M, C10A
Regarding B13, the “apparent Kd (screen)” value is 1.05 nM.

B14: K107Y (designed binder)
chain: B1 chain with C10A, K107Y
Turning to B14, the “apparent Kd (screen)” value worked out at 2.73 nM.

B15: K73F (designed binder)
chain: B1 chain with C10A, K73F
Regarding B15, the “apparent Kd (screen)” value was 15.2 nM.

B16: S77L (designed binder)
chain: B1 chain with C10A, S77L
For the molecule B16, the “apparent Kd (screen)” value was found to be 7.07 nM.

B17: K64W (designed binder)
chain: B1 chain with C10A, K64W
For B17, the “apparent Kd (screen)” value amounted to 0.446 nM.

B18: S1P (designed binder)
chain: B1 chain with S1P, C10A
With B18, the “apparent Kd (screen)” value turned out to be 0.539 nM.

B19: K64A (designed binder)
chain: B1 chain with C10A, K64A
With B19, the “apparent Kd (screen)” value turned out to be 0.956 nM.

B20: T97N (designed binder)
chain: B1 chain with C10A, T97N
As to B20, the “apparent Kd (screen)” value was determined as 1.16 nM.

B21: E104A (designed binder)
chain: B1 chain with C10A, E104A
As to B21, the “apparent Kd (screen)” value was found to be 0.79 nM.

B22: R38V (designed binder)
chain: B1 chain with C10A, R38V
Consider B22, for which the “apparent Kd (screen)” value is 2.48 nM.
